Laboratory results: patent publication US20200140512A1 (Xencor, published 2020)

Key:
human PD-1-His [1] = target: T1, human PD-1-His (human, UniProt Q15116 25-167, limits assumed); assay: Octet, antibody on AHC biosensors, multiple concentrations of PD-1-His
T1 construct: not shown: His tag

human PD-1-His [2] = target: T1, human PD-1-His; assay: Octet (Example 7A, told again)
human PD-1-His [3] = target: T1, human PD-1-His; assay: Octet, antibody captured on anti-human Fc (AHC) biosensors, dipped into multiple concentrations of PD-1-His
[4] = target: T2, PD-1 (antigen of the Octet affinity measurements of Example 9 and of the affinities quoted afterwards) (UniProt Q15116 25-167, limits assumed); assay: Octet affinity screen, bivalent IgG1 format
T2 construct: most likely human PD-1-His
T2 sequence (Q15116 25-167 limits assumed): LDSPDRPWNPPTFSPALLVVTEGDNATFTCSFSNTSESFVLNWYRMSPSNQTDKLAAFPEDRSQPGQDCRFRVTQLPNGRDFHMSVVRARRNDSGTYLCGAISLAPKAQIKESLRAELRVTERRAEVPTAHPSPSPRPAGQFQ

T1 sequence (Q15116 25-167 limits assumed): as above

B1: XENP28519 (bivalent mAb based on humanized mAb A) (antibody, human IgG1, kappa, V domains shown)
VH: QVQLQESGPGLVKPSQTLSLTCTVSGHSITSDYAWNWIRQPPGKKLEWIGYISYSGYTTYNPSLKSRVTISRDTSKNQFSLKLSSVTAADTAVYFCARDLDYGPWFAYWGQGTLVTVSS
VL: DIQMTQSPSSLSASVGDRVTITCRASENIHNYLAWYQQKPGKSPKLLVYNVKTLADGVPSRFSGSGSGTDYTLTISSLQPEDFATYYCQHFWSSPWTFGGGTKVEIKR
notes: also called anti-PD-1 mAb XENP28519
- binding result (human PD-1-His [1]): binds

B2: XENP28536 (bivalent mAb based on humanized mAb C, mAb C[PD-1]_H1L1) (antibody, human IgG1, V domains shown)
VH: EVQLVESGGGLVQPGGSLRLSCAASGFTFSSFGMHWVRQAPGKGLEWVSYISSGSSIIYYADSVKGRFTISRDNAKNSLYLQMNSLRAEDTAVYYCARGGRLVWSPDYWGQGTLVTVSS
VL: DIVMTQSPDSLAVSLGERATINCKSSQSLLNSGNQKNYLTWYQQKPGQPPKLLIYWASTRESGVPDRFTGSGSGTDFTLTISSLQAEDVAVYYCQNDYSYPFTFGSGTKLEIK
notes: also called WT
- binding result (human PD-1-His [2]): binds

B3: XENP28538 (humanized variant of anti-PD-1 mAb C, bivalent human IgG1) (antibody, V domains shown)
VH: EVQLVESGGGLVKPGGSLRLSCAASGFTFSSFGMHWVRQAPGKGLEWVGYISSGSSIIYYADPVKGRFTISRDNSKNTLYLQMNSLKTEDTAVYYCARGGRLVWSPDYWGQGTLVTVSS
VL: DIVMTQSPDSLAVSLGERATINCKSSQSLLNSGNQKNYLTWYQQKPGQPPKLLIYWASTRESGVPDRFTGSGSGTDFTLTISSLQAEDVAVYYCQNDYSYPFTFGSGTKLEIKR
notes: Human IgG1 with E233P/L234V/L235A/G236del/S267K
- binding result (human PD-1-His [3]): no binding

B4: mAb C[PD-1]_H1_L1.1 (bivalent IgG1 format with E233P/L234V/L235A/G236_/S267K ablation variants) (antibody, V domains shown)
VH: EVQLVESGGGLVQPGGSLRLSCAASGFTFSSFGMHWVRQAPGKGLEWVSYISSGSSIIYYADSVKGRFTISRDNAKNSLYLQMNSLRAEDTAVYYCARGGRLVWSPDYWGQGTLVTVSS
VL: DIVMTQSPDSLAVSLGERATINCKSSQSLLHSGNQKNYLTWYQQKPGQPPKLLIYWASTRESGVPDRFTGSGSGTDFTLTISSLQAEDVAVYYCQNDYSYPFTFGSGTKLEIKR
notes: Human IgG1 with ablation variants; copies: 2 + 2
- fold improved affinity over WT [4]: 2 fold

B5: mab_C[PD-1]_H1_L1.3 (bivalent IgG1 format with E233P/L234V/L235A/G236_/S267K ablation variants) (antibody, V domains shown)
VH: EVQLVESGGGLVQPGGSLRLSCAASGFTFSSFGMHWVRQAPGKGLEWVSYISSGSSIIYYADSVKGRFTISRDNAKNSLYLQMNSLRAEDTAVYYCARGGRLVWSPDYWGQGTLVTVSS
VL: DIVMTQSPDSLAVSLGERATINCKSSQSLLSSGNQKNYLTWYQQKPGQPPKLLIYWASTRESGVPDRFTGSGSGTDFTLTISSLQAEDVAVYYCQNDYSYPFTFGSGTKLEIKR
notes: as for B4
- fold improved affinity over WT [4]: > 2 fold

B6: XENP28539 (humanized variant of anti-PD-1 mAb C, bivalent human IgG1) (antibody, V domains shown)
VH: EVQLVESGGGLVKPGGSLRLSCAASGFTFSSFGMHWVRQAPGKGLEWVGYISSGSSIIYYADPVKGRFTISRDNSKNTLYLQMNSLKTEDTAVYYCARGGRLVWSPDYWGQGTLVTVSS
VL: DIVMTQSPLSLPVTPGEPASISCRSSQSLLNSGNQKNYLTWYLQKPGQPPQLLIYWASTRESGVPDRFTGSGSGTDFTLKISRVEAEDVGVYYCQNDYSYPFTFGSGTKLEIKR
notes: as for B3
- binding result (human PD-1-His [3]): no binding
